The results in this text go back to publication PMC9645528, “Structural and functional basis of mammalian microRNA biogenesis by Dicer”.

Data set [1] addresses DicerO (oocyte isoform lacking HEL1) (Mus musculus, UniProt Q8R418-2 1-1678). The data set can be described thus: EMSA; EMSA conditions not in the material; protein storage/SEC buffer 50 mM Tris pH 8.0, 150 mM NaCl, 1 mM DTT, 2 mM MgCl2 (2 mM CaCl2 for WT Dicer structural work). Particulars: protein: recombinant, tags: N-term TwinStrep-HA-TEV, C-term TEV-2xFLAG-8xHis, hairpin, GCAA tetraloop, 3' overhang UU. (Mobility shift assays separate free from complexed probe on a gel.)

Another data set has as its target Dicer (full-length) (Mus musculus, UniProt Q8R418 1-1916). The description is as above. Conditions: protein: recombinant, tags: N-term TwinStrep-HA-TEV, C-term TEV-2xFLAG-8xHis, hairpin, GCAA tetraloop, 3' overhang UU.

DicerO (oocyte isoform lacking HEL1), sequence (Q8R418 other isoform, or with tags, fused parts or gaps): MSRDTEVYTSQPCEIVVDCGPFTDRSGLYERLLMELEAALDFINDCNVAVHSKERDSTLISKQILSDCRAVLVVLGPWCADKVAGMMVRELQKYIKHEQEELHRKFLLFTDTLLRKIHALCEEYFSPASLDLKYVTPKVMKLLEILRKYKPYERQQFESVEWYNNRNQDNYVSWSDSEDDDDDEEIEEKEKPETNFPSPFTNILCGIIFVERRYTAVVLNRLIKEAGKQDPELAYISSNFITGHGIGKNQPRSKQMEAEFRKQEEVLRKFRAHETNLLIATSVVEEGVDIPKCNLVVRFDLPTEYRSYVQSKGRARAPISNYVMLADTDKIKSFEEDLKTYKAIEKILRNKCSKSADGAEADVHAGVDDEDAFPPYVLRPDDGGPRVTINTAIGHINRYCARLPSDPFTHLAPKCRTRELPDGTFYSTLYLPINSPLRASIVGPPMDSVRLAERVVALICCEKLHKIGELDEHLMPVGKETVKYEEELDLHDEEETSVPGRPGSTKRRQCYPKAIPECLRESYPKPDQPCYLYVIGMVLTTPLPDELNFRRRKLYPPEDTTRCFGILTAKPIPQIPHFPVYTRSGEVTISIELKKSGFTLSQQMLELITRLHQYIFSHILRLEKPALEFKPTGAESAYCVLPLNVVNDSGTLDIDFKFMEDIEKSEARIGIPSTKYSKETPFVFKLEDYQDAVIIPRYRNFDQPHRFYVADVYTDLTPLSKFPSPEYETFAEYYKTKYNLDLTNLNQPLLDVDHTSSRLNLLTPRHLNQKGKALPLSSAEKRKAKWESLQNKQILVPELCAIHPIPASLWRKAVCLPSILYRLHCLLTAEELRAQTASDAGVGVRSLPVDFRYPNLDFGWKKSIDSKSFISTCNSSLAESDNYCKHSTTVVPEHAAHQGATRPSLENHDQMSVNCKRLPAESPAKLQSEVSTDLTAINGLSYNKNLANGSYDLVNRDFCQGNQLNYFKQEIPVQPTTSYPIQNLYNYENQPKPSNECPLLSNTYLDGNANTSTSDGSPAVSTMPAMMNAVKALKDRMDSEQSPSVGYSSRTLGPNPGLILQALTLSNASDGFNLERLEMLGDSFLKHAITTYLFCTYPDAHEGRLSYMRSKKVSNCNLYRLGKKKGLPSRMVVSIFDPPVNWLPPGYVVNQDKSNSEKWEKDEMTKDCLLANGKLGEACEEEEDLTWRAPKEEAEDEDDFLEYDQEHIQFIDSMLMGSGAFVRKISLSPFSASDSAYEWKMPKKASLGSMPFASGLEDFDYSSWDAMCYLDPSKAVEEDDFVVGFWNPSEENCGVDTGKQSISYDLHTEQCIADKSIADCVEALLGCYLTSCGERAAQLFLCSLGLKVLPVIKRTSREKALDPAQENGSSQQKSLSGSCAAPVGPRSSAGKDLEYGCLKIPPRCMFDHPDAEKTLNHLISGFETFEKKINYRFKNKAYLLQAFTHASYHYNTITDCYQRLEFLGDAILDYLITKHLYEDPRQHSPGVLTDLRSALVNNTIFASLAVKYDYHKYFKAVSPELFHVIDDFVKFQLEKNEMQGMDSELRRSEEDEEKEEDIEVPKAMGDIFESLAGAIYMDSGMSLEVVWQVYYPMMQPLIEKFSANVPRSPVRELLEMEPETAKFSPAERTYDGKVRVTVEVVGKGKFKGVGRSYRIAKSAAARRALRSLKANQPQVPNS
Dicer (full-length), sequence (Q8R418 whole entry): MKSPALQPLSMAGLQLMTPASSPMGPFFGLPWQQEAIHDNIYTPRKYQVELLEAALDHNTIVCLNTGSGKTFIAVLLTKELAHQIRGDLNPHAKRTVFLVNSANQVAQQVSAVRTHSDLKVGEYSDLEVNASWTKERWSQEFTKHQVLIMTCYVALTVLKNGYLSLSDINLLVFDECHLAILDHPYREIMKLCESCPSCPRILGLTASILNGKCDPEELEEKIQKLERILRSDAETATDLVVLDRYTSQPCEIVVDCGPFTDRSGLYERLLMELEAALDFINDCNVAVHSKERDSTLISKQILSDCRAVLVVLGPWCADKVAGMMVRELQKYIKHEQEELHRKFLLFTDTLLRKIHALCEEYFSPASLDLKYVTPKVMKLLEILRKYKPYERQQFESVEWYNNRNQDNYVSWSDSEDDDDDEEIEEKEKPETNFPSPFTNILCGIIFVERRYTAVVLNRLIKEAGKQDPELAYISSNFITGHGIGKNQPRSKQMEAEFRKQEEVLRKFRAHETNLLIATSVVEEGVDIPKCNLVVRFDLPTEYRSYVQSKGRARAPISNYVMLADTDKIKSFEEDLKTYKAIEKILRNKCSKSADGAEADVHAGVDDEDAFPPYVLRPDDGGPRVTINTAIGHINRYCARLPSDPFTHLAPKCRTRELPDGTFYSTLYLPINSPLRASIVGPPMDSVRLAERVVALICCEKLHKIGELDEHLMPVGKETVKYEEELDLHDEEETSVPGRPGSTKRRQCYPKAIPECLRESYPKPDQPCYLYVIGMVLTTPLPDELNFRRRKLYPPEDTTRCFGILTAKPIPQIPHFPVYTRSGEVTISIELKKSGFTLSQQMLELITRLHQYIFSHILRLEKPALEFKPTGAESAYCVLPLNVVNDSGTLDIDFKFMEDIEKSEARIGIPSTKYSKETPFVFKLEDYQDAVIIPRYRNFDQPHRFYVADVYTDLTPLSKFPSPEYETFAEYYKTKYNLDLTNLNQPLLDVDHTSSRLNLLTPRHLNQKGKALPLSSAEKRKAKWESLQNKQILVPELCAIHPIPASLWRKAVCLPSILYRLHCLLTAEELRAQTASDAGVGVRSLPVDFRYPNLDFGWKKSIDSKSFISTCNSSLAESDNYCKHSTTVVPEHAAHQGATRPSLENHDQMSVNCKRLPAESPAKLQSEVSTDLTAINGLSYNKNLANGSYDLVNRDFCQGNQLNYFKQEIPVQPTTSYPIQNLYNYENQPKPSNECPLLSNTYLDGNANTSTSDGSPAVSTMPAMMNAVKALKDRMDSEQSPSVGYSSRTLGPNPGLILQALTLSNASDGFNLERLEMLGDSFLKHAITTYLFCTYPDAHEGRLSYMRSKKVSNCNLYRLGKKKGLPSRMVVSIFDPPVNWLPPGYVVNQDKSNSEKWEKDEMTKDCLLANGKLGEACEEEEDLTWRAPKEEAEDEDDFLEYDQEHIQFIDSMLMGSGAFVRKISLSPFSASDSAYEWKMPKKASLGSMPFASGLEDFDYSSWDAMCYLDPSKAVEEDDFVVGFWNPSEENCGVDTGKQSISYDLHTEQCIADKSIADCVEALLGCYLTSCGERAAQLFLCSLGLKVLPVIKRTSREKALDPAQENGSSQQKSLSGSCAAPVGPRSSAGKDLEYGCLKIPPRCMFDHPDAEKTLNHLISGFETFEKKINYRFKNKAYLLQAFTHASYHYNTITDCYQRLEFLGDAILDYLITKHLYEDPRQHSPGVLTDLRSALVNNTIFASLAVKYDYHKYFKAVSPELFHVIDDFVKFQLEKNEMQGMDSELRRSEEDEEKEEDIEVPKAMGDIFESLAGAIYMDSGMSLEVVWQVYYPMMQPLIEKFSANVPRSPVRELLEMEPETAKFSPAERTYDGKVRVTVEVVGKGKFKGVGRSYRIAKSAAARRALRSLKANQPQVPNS

B1: 42bp stem-loop (structured_RNA)
RNA: AGAGGAGAGGGACAAUAGAGGAGAGGGACAAUCAUAAAGGCCGCAAGGCCUUUAUGAUUGUCCCUCUCCUCUAUUGUCCCUCUCCUCUUU
For B1, the dissociation constant Kd in data set [1] (42 bp stem) worked out at 55 ± 4 nM; in the data set with Dicer (full-length) (42 bp stem) it was 115 ± 20 nM.

B2: 30bp stem-loop (structured_RNA)
RNA: AGAGGAGAGGGACAAUCAUAAAGGCCACUCGCAAGAGUGGCCUUUAUGAUUGUCCCUCUCCUCUUU
As to B2, the figures for the Kd (in data set [1] (30 bp stem); in the data set with Dicer (full-length) (30 bp stem)) were 79 ± 7 nM and 120 ± 27 nM, respectively.

Usually Kd stands for a measure of binding affinity in units of concentration.
